Results from patent US20100291682, “SYSTEM FOR TRANSPOSING HYPERACTIVE RECOMBINANT DERIVATIVES OF MOS-1 TRANSPOSON” (published 2010).
Substitutions are numbered along the chain they refer to.

Assays:
Experiment in all cases: cell_activity; 3T46 transposition in E. coli T5 vs 3T3/WT
Conditions in all cases: chain copies: 2
Mos-1 transposase FQET = target: T1, Mos-1 transposase FQET (Drosophila mauritiana, UniProt Q7JQ07 SEQ:1-345, F53Y,Q91R,E137K,T216A)
T1 sequence: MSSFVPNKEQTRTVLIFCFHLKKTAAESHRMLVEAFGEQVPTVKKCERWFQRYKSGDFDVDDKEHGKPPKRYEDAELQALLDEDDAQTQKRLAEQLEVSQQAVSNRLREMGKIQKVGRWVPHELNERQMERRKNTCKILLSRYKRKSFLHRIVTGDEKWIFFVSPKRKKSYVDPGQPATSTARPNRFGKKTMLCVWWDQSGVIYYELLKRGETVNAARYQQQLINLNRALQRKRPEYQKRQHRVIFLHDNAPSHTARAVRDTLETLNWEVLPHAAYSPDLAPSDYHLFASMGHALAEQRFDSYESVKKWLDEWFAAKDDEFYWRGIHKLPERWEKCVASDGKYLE
Protocol: (§1) Escherichia coli JM109 bacteria were co-transformed with the pBC 3T3 plasmid (comprising a transposition reporter 2 ITR 3′ mariner-like element and the chloramphenicol resistance gene) and with the inducible vector encoding for the transposase (pKK-Tnp or pMal-Tnp) comprising the ampicillin resistance gene. The bacteria selection was performed on ampicillin (100 μg/ml) and chloramphenicol in order to verify the presence of the two plasmids.
(§2) The JM109 bacteria containing both the pBC 3T3 plasmid and the pKK-Tnp (or pMalC2X-Tnp) plasmid were placed in culture for 1 hr at 37° C. in 250 μl of LB. This inoculum was then poured into 5 ml of LB supplemented with 1 mM IPTG. The culture was titrated on LB plates (100 μl of a 1/1000 dilution) and on LB-Tet plates (12.5 μg/ml) (250 μl of the non-diluted culture). The culture induced by IPTG was then cultured for 5 hours at 32° C. (optimal temperature of transposase) under stirring (250 rpm). The bacterial suspension was then titrated on LB plates (100 μl of a 1/250,000 dilution) and on LB-tet plates (100 μl of the undiluted bacterial suspension). The plates were placed at 37° C. overnight. The following day, the colonies were counted on LB and LB-Tet plates, and the transposition frequency (equal to the number of tetracycline bacteria over the number of bacterial per 1 ml of undiluted bacterial suspension) was calculated.
(§3) In order to evaluate the transposition efficiency of systems associating a hyperactive transposase and a pseudo-transposon that is also hyperactive, various combinations were tested in the transposition test in bacteria described in part I, paragraph I-B above.

Mos-1 transposase FTY = target: T2, Mos-1 transposase FTY (Drosophila mauritiana, UniProt Q7JQ07 SEQ:1-345, F53Y,T216A,Y237C)
T2 sequence: T1 sequence with R91Q, K137E, Y237C
Protocol: as §1, §2, §3

Mos-1 transposase ET = target: T3, Mos-1 transposase ET (Drosophila mauritiana, UniProt Q7JQ07 SEQ:1-345, E137K,T216A)
T3 sequence: T1 sequence with Y53F, R91Q
Protocol: as §1, §2, §3

Mos-1 transposase TY = target: T4, Mos-1 transposase TY (Drosophila mauritiana, UniProt Q7JQ07 SEQ:1-345, T216A,Y237C)
T4 sequence: T1 sequence with Y53F, R91Q, K137E, Y237C
Protocol: as §1, §2, §3

Mos-1 transposase FT = target: T5, Mos-1 transposase FT (Drosophila mauritiana, UniProt Q7JQ07 SEQ:1-345, F53Y,T216A)
T5 sequence: T1 sequence with R91Q, K137E
Protocol: as §1, §2, §3

B1: ITR46 (dsDNA)
DNA 1: TCAGGTGTACAAGTATGAGATGTCGTTT
DNA 2: AAACGACATCTCATACTTGTACACCTGA
activity (Mos-1 transposase FQET): 12.3 fold
activity (Mos-1 transposase FTY): 19.4 fold
activity (Mos-1 transposase ET): 6.7 fold
activity (Mos-1 transposase TY): 61.8 fold
activity (Mos-1 transposase FT): 3.7 fold
